Test [1] deals with T1, human IL-13 (human, UniProt P35225). The test can be described thus: SPR, 25C, average of 3 determinations. Background: In SPR one partner is held on a chip, and binding of the other changes the refractive index at the surface.
Test [2] deals with T1, human IL-13. The test can be described thus: SPR, average.

In general, Kd refers to a measure of binding affinity in units of concentration. Low readings indicate higher affinity, high ones lower affinity.

T1 sequence (P35225 25-146): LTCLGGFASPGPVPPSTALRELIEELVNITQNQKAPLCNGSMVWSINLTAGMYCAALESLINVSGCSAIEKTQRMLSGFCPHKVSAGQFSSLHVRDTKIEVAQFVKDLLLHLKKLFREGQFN

B1: Ab652 Fab (antibody, V domains shown)
VH: QVTLKESGPVLVKPTETLTLTCTVSGFSLSNARMGVSWIRQPPGKALEWLAHIFSNDEKSYSTSLKSRLTISKDTSKSQVVLTMTNMDPVDTATYYCARIYFDYWGQGTLVTVS
VL: DIQMTQSPSSLSASVGDRVTITCLASEDISNYLAWYQQKPGKAPKLLIYHTSRLQDGVPSRFSGSGSGTDFTLTISSLQPEDFATYYCQQGYRFPLTFGGGTKVEIK
On to B1, for which the figures for the Kd with human IL-13 [1] and in the test with human IL-13 [2] were 0.015 nM and 0.0134 nM, respectively.
